Laboratory results as given in article PMC12582335.

Key:
[1] = target: SARS-CoV-2 Wuhan spike protein trimer (AcroBiosystems) (SARS-CoV-2 (Wuhan)) (UniProt P0DTC2); experiment: ELISA; Wuhan spike 2 µg/mL coated; rCL-11 3 µg/mL with L-fucose or D-galactose (0 to 200 mM) or 20 mM EDTA, 18 h at 4 °C
[2] = target: SARS-CoV-2 Omicron BA.1 spike protein trimer (AcroBiosystems) (SARS-CoV-2 (Omicron BA.1)) (UniProt P0DTC2); experiment: ELISA; spike trimer (Wuhan or Omicron BA.1) or BSA coated on Nunc MaxiSorp plates in carbonate/bicarbonate buffer, 18 h at 4 °C; rCL-11 (CHO) in solution, either titrated on 2 µg/mL spike or 3 µg/mL on a range of spike; detected with rabbit anti-human CL-11 and HRP anti-rabbit IgG
[3] = target: SARS-CoV-2 Wuhan spike protein trimer (AcroBiosystems) (SARS-CoV-2 (Wuhan)) (UniProt P0DTC2); experiment: as above

Work on “recombinant collectin-11 (rCL-11), CHO-expressed (from UniProt Q9BWP8 26-271) (natural protein)” yielded a percent inhibition by L-fucose [1] of over 90%, an EC50 [2] of 6 nM and an EC50 [3] of 7.6 nM.
